Reference: doi:10.1101/2024.09.02.610768 (bioRxiv, 2024)

Columns and labels:
SEC-MALS = biological target: the molecule itself; assay: SEC-MALS
FrzCD [1] = biological target: T1, FrzCD (Myxococcus xanthus, UniProt P43500 1-417); assay: BLI
T1 sequence: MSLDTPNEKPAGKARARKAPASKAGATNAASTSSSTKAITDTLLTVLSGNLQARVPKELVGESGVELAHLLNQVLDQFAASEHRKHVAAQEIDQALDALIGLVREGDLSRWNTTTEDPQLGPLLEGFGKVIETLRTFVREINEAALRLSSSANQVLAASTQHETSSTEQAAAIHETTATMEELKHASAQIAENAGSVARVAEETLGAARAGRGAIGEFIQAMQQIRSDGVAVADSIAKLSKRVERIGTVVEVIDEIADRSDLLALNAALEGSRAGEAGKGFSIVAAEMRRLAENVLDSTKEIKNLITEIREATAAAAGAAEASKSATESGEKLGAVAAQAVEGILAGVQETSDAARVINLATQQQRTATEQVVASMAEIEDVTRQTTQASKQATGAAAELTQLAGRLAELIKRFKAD

FrzCDΔH1ΔH2 [2] = biological target: T2, FrzCDΔH1ΔH2 (Myxococcus xanthus, UniProt P43500 1-417, del31-137); assay: BLI
T2 sequence: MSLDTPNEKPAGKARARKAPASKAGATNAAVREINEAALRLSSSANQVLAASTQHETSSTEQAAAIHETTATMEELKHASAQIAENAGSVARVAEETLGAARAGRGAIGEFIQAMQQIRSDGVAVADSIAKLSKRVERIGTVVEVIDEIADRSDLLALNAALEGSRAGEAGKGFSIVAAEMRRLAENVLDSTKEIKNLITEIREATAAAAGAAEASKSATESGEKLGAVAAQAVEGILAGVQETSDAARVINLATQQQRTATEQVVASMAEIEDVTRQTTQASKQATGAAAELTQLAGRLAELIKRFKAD

FrzCDΔH1 [3] = biological target: T3, FrzCDΔH1 (Myxococcus xanthus, UniProt P43500 1-417, del31-83); assay: BLI
T3 sequence: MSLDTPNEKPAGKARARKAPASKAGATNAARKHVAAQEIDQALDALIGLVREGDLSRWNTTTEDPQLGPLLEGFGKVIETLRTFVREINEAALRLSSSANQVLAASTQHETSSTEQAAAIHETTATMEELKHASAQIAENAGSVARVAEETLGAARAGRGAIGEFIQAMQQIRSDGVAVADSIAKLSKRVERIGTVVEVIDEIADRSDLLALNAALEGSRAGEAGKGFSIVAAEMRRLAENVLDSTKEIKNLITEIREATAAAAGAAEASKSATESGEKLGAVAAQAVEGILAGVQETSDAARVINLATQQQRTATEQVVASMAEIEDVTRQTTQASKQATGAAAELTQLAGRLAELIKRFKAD

FrzCDΔH2 (DB-H1-MA) [4] = biological target: T4, FrzCDΔH2 (DB-H1-MA) (Myxococcus xanthus, UniProt P43500 1-417, del84-137); assay: BLI
T4 sequence: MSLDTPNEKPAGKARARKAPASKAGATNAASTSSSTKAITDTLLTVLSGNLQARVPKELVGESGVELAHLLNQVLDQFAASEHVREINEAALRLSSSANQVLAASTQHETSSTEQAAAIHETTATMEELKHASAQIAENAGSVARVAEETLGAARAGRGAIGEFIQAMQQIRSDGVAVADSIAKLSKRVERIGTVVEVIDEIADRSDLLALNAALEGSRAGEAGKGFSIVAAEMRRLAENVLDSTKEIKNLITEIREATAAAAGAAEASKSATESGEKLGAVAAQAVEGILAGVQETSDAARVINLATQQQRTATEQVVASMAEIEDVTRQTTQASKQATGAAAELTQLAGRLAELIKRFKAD

FrzCD [5] = biological target: T1, FrzCD; assay: EMSA
FrzCDΔMA (DB-H1-H2) [6] = biological target: T5, FrzCDΔMA (DB-H1-H2) (Myxococcus xanthus, UniProt P43500 1-137, del138-417); assay: EMSA
T5 sequence: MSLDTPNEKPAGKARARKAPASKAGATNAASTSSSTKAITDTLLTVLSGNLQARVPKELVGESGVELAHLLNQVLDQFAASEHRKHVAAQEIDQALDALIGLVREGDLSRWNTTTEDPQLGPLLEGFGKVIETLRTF

FrzCDΔMA (DB-H1-H2) [7] = biological target: T5, FrzCDΔMA (DB-H1-H2); assay: EMSA; remark: listed apart in the source
FrzCDΔMA (DB-H1-H2) [8] = biological target: T5, FrzCDΔMA (DB-H1-H2); assay: SEC-MALS
FrzCDΔH1ΔH2 [9] = biological target: T2, FrzCDΔH1ΔH2; assay: EMSA
FrzCDΔH1 [10] = biological target: T3, FrzCDΔH1; assay: EMSA
FrzCDΔH2 (DB-H1-MA) [11] = biological target: T4, FrzCDΔH2 (DB-H1-MA); assay: EMSA
FrzCD [12] = biological target: T1, FrzCD; assay: SEC-MALS

B1: FrzCD full-length (His6-tagged) (receptor, Myxococcus xanthus, UniProt P43500 1-417, looked up)
chain: MSLDTPNEKPAGKARARKAPASKAGATNAASTSSSTKAITDTLLTVLSGNLQARVPKELVGESGVELAHLLNQVLDQFAASEHRKHVAAQEIDQALDALIGLVREGDLSRWNTTTEDPQLGPLLEGFGKVIETLRTFVREINEAALRLSSSANQVLAASTQHETSSTEQAAAIHETTATMEELKHASAQIAENAGSVARVAEETLGAARAGRGAIGEFIQAMQQIRSDGVAVADSIAKLSKRVERIGTVVEVIDEIADRSDLLALNAALEGSRAGEAGKGFSIVAAEMRRLAENVLDSTKEIKNLITEIREATAAAAGAAEASKSATESGEKLGAVAAQAVEGILAGVQETSDAARVINLATQQQRTATEQVVASMAEIEDVTRQTTQASKQATGAAAELTQLAGRLAELIKRFKAD
Question: How did the “stoichiometry N” value (SEC-MALS) turn out when B1 was run?
Answer: 2

B2: FrzCD^ΔMA (domain or fragment, Myxococcus xanthus, UniProt P43500 1-137, looked up)
chain: MSLDTPNEKPAGKARARKAPASKAGATNAASTSSSTKAITDTLLTVLSGNLQARVPKELVGESGVELAHLLNQVLDQFAASEHRKHVAAQEIDQALDALIGLVREGDLSRWNTTTEDPQLGPLLEGFGKVIETLRTF
Question: Which “stoichiometry N” value (SEC-MALS) does the source give for B2 here?
Answer: 2

B3: FrzCD^ΔH1 (receptor, Myxococcus xanthus, UniProt P43500 1-417, looked up)
chain: MSLDTPNEKPAGKARARKAPASKAGATNAARKHVAAQEIDQALDALIGLVREGDLSRWNTTTEDPQLGPLLEGFGKVIETLRTFVREINEAALRLSSSANQVLAASTQHETSSTEQAAAIHETTATMEELKHASAQIAENAGSVARVAEETLGAARAGRGAIGEFIQAMQQIRSDGVAVADSIAKLSKRVERIGTVVEVIDEIADRSDLLALNAALEGSRAGEAGKGFSIVAAEMRRLAENVLDSTKEIKNLITEIREATAAAAGAAEASKSATESGEKLGAVAAQAVEGILAGVQETSDAARVINLATQQQRTATEQVVASMAEIEDVTRQTTQASKQATGAAAELTQLAGRLAELIKRFKAD
Question: Which “stoichiometry N” value (SEC-MALS) does the source give for B3 here?
Answer: 4

B4: FrzCD^ΔH2 (receptor, Myxococcus xanthus, UniProt P43500 1-417, looked up)
chain: MSLDTPNEKPAGKARARKAPASKAGATNAASTSSSTKAITDTLLTVLSGNLQARVPKELVGESGVELAHLLNQVLDQFAASEHVREINEAALRLSSSANQVLAASTQHETSSTEQAAAIHETTATMEELKHASAQIAENAGSVARVAEETLGAARAGRGAIGEFIQAMQQIRSDGVAVADSIAKLSKRVERIGTVVEVIDEIADRSDLLALNAALEGSRAGEAGKGFSIVAAEMRRLAENVLDSTKEIKNLITEIREATAAAAGAAEASKSATESGEKLGAVAAQAVEGILAGVQETSDAARVINLATQQQRTATEQVVASMAEIEDVTRQTTQASKQATGAAAELTQLAGRLAELIKRFKAD
Question: For B4, which “stoichiometry N” value (SEC-MALS) is on record?
Answer: 4

B5: FrzCD^ΔH1ΔH2 (receptor, Myxococcus xanthus, UniProt P43500 1-417, looked up)
chain: MSLDTPNEKPAGKARARKAPASKAGATNAAVREINEAALRLSSSANQVLAASTQHETSSTEQAAAIHETTATMEELKHASAQIAENAGSVARVAEETLGAARAGRGAIGEFIQAMQQIRSDGVAVADSIAKLSKRVERIGTVVEVIDEIADRSDLLALNAALEGSRAGEAGKGFSIVAAEMRRLAENVLDSTKEIKNLITEIREATAAAAGAAEASKSATESGEKLGAVAAQAVEGILAGVQETSDAARVINLATQQQRTATEQVVASMAEIEDVTRQTTQASKQATGAAAELTQLAGRLAELIKRFKAD
Question: For B5, which “stoichiometry N” value (SEC-MALS) is on record?
Answer: 4

B6: 178 bp DNA (dsDNA)
DNA 1: GGATCGCATCTGCCTACATCCCCAGCTCCCGGTCGGTCCGCTCGGAACCTAGCCCGGGTCAAAGACCCGGGGTCTATGTTGACCCATTTGGTGGGGATGGGTCTAATTGGACCTGGCGTTTTTTCGCGCCATGGAAATGTCAAGGCCCGTGATTCCAGACTGTTGGGCAGGGAGTT
DNA 2: AACTCCCTGCCCAACAGTCTGGAATCACGGGCCTTGACATTTCCATGGCGCGAAAAAACGCCAGGTCCAATTAGACCCATCCCCACCAAATGGGTCAACATAGACCCCGGGTCTTTGACCCGGGCTAGGTTCCGAGCGGACCGACCGGGAGCTGGGGATGTAGGCAGATGCGATCC
Question: B6 was tested. Which Kd (FrzCD [1]) did it give?
Answer: 1070 nM

Question: What about the Kd (FrzCDΔH1ΔH2 [2]) of the same binder?
Answer: 203 nM

Question: What about the Kd (FrzCDΔH1 [3]) of the same binder?
Answer: 2270 nM

Question: And the Kd (FrzCDΔH2 (DB-H1-MA) [4])?
Answer: 2640 nM

Question: Does AAAAAAAA (ssDNA) [8-base poly-A ssDNA] bind (FrzCD [5])?
Answer: binds

B7: 8 bp DNA (dsDNA)
DNA 1: ACTGCAGT
DNA 2: ACTGCAGT
Question: Does B7 bind (FrzCD [5])?
Answer: binds

Question: Does B7 bind (FrzCDΔMA (DB-H1-H2) [6])?
Answer: binds

B8: 12 bp DNA (dsDNA)
DNA 1: CTCACTATAGGG
DNA 2: CCCTATAGTGAG
Question: Does B8 bind (FrzCDΔMA (DB-H1-H2) [7])?
Answer: binds

B9: 35 bp DNA (dsDNA)
DNA 1: GTCACCTGCTCTAGCTAATAGACTGAGCCGAGGTG
DNA 2: CACCTCGGCTCAGTCTATTAGCTAGAGCAGGTGAC
Question: Does B9 bind (FrzCDΔMA (DB-H1-H2) [8])?
Answer: binds

Question: Does B9 bind (FrzCDΔH1ΔH2 [9])?
Answer: binds

Question: Does B9 bind (FrzCDΔH1 [10])?
Answer: binds

Question: Does B9 bind (FrzCDΔH2 (DB-H1-MA) [11])?
Answer: binds

Question: Does B9 bind (FrzCD [12])?
Answer: binds
